Data from patent US20090280528.

Experiments:
[1] = test system: T1, Sbo13I restriction endonuclease (Shigella boydii 13); assay: cleavage_in_vitro; settings: 37 C, 10 mM Mg, 55 mM NaCl, pH 7.5; approximate value; lambda DNA assay
T1 sequence: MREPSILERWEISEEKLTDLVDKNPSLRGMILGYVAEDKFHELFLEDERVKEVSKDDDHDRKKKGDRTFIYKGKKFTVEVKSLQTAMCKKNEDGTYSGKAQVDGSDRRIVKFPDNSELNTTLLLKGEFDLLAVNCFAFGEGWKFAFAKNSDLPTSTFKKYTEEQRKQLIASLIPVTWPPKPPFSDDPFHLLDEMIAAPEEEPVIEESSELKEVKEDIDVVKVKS

[2] = test system: T2, NruI restriction endonuclease (recombinant) (Nocardia rubra); assay: cleavage_in_vitro; settings: 37 C, 30 min, NEB buffer 2; complete digestion pattern; approximate value
T2 sequence: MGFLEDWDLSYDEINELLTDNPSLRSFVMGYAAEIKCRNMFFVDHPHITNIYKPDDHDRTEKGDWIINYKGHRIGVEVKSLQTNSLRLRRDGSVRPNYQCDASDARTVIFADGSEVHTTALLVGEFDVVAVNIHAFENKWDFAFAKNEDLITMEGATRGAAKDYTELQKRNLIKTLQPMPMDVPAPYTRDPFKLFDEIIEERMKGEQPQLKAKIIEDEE

Lambda phage DNA
activity (units per gram wet cell paste) [1]: 100000 | activity (units per gram wet cells) [2]: 6.5e+06
